Measured values published in the supplement of paper PMC11865577.

Tests used:
Assay in all cases: pull-down binding Z-score (relative to library population); higher = stronger binding
Settings in all cases: RNA library: Library-2
[1] = test system: TO-3-N3 (biotin conjugate)
How it was run: (§1)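 To score binding, a beads-only signal was subtracted, barcoded replicate probes were averaged with the highest and lowest dropped, and the value was converted to a Z-score using the library mean and standard deviation. The input was 1 μg of Cy5- or Cy3-end-labelled RNA library, heat-folded in phosphate/NaCl/KCl buffer and mixed for 60 min at 25 °C with streptavidin beads carrying 100 pmol of biotin-conjugated small molecule. Bound RNA was eluted in hot SDS and hybridised to a DNA barcode microarray at 55.5 °C for 20 h.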

[2] = test system: TO-3-N3-2 (biotin conjugate)
How it was run: as §1

TO-N3 (biotin conjugate) = test system: TO-N3 (biotin conjugate)
How it was run: as §1

[3] = test system: TO-N3-2 (biotin conjugate)
How it was run: as §1

| Sequence | pull-down binding Z-score [1] | pull-down binding Z-score [2] | pull-down binding Z-score (TO-N3 (biotin conjugate)) | pull-down binding Z-score [3] |
| --- | --- | --- | --- | --- |
| AUGAACCACAAAUCAU [DMSMaPseq_invitro_SARS-CoV-2_Motif_444] | 0.463 | -0.31 | 0.254 | -1.03 |
| AUUUUUCUAAACUGAUAAAU [DMSMaPseq_invitro_SARS-CoV-2_Motif_131] | -0.374 | -0.194 | -0.771 | -1.08 |
| GGGAAGGCGAAAGACC [IAV_invivo_PA_3_Motif_21+IAV_invivo_PA_3_Motif_21] | 0.143 | 0.289 | 0.603 | 1.12 |
| CUGGACUCUAAAUAGAAACCAACCUGCUGCAACAGCAUUGGCCAACACAAUAGAAGUGUUCAGAUCAAAUGGCCUCACGGCCAAUGAGUCUGG | -0.791 | -0.486 | -0.231 | 0.269 |
| UGUAAAUCACAUAAACCACCCAUUAGUUUUCCAUUGUGUGCUAAUGGACAAGUUUUUGGUUUAUA | -0.529 | 0.371 | -0.491 | -0.995 |
| CUAUACAUUCUUUAAGAGUUUGUGUAG | -0.365 | -0.294 | -0.583 | -1.28 |
| CUUUAUUAGAAG [DMSMaPseq_invitro_SARS-CoV-2_Motif_195] | -0.165 | -0.21 | -0.39 | -0.806 |
| GGAAUUGUGUUAAUUGUGAUACAUUCU [SHAPE_invitro_SARS-CoV-2_Motif_150] | -0.83 | -0.388 | -0.949 | -0.855 |
| GGGAGCUAUAAACAGCAGUCUCCC [IAV_invivo_HA_4_Motif_12+IAV_invivo_HA_4_Motif_12] | 0.403 | 0.213 | 0.537 | 0.468 |
| GGGCCUCCCUGUUCUCAGCGGUCC [IAV_invivo_PA_3_Motif_11+IAV_invivo_PA_3_Motif_11] | -0.00636 | -0.456 | -0.152 | -0.287 |
| GGAGAGUGUGGACACUUAUGAAUGUCUUGACACUCGUU [SHAPE_invitro_SARS-CoV-2_Motif_211] | 0.331 | 0.121 | 0.586 | 0.364 |
| UAUUUGCCUAUAGAUA | 0.0252 | -0.192 | -0.128 | -0.821 |
| UCAAAAAGAAAUUGA [SHAPE_invivo_SARS-CoV-2_Motif_472] | -0.145 | 0.153 | -0.459 | -0.626 |
| UAAUUAUAAAUUACCAGAUGAUUUUACAGGCUGCGUUAUAGCUUGGAAUUCUAACAAUCUUGAUUCUAAGGUUGGUGGUAAUUAUAAUUA | -0.486 | 0.371 | -0.838 | -0.713 |
| GUUUCUGCCUUUCCAACAAUUUGGCAGAGAC | -0.615 | -0.306 | -0.868 | -0.994 |
| UGCAUUUCUUACCUAGAGUUUUUAGUGCA [DMSMaPseq_invitro_SARS-CoV-2_Motif_163] | -0.82 | -0.416 | -1.09 | -1.24 |

| Sequence | pull-down binding Z-score [1] | pull-down binding Z-score [2] | pull-down binding Z-score (TO-N3 (biotin conjugate)) | pull-down binding Z-score [3] |
| --- | --- | --- | --- | --- |
| CCAGUACCAGAGGUGAAAAUACUCAAUAAUUUGGGUGUGGACAUUGCUGCUAAUACUGUG | 1.32 | 0.266 | 1.18 | -0.0208 |
| UGUUGUAAAUAAGGGACACUUUGAUGGACAACA [DMSMaPseq_invitro_SARS-CoV-2_Motif_348] | -0.73 | -0.178 | -0.488 | 0.325 |
| UGGGCACACUUUCUUAUGAACAAUUUAAGAAAGGUGUUCA [SHAPE_invivo_SARS-CoV-2_Motif_116] | -0.385 | -0.384 | -0.52 | -0.779 |
| UAAACACGCUUGUUAAACAACUUAGCUCCAAUUUUGGUGCAAUUUCAAGUGUUUUA [SHAPE_invitro_SARS-CoV-2_Motif_443] | -0.82 | -0.221 | -0.925 | -0.333 |
| AUGUUUGUCAAACAUAAGCAU [DMSMaPseq_invitro_SARS-CoV-2_Motif_200] | -0.651 | -0.54 | -0.873 | -0.806 |
| ACAGGAGUCACCUUUUGU [SHAPE_invitro_SARS-CoV-2_Motif_112] | -0.709 | -0.599 | -0.78 | -0.669 |
| CUGGAAUUGCCGUUUUAG [SHAPE_invivo_SARS-CoV-2_Motif_210] | 0.0793 | -0.112 | -0.0237 | -0.115 |
| UCCUAUUUCUGAACAUGACUACCAGAUUGGUGGUUAUACUGAAAAAUGGGA | 0.1 | -0.375 | 0.012 | -0.953 |
| UAGCGUGCCUUUGUAAGCACAAGCUG | 0.532 | 0.0842 | 0.57 | 0.342 |
| GUGGCUAAAUCUGAAUUUGACCGUGAUGCAGCCAU [DMSMaPseq_invitro_SARS-CoV-2_Motif_214] | -0.576 | -0.199 | -0.504 | -0.12 |
| GAUUUGGCUACUAACAAUC [SHAPE_invitro_SARS-CoV-2_Motif_40] | 0.705 | 0.126 | 0.624 | -0.0811 |
| AGUGAUGGAACU [DMSMaPseq_invitro_SARS-CoV-2_Motif_229] | -0.565 | -0.117 | -0.658 | -0.572 |
| GUGCUAAGCAC | -0.151 | -0.435 | -0.59 | -1.24 |
| GCGCUGCCAGAAACUGGCUGCGC [mismatch-UU] | 0.141 | -0.405 | -0.231 | -0.689 |
| UAAAGAACUUUAAGUCAGUUCUUUA | -0.827 | -0.501 | -1.25 | -1.19 |
| GGAGACAGGUGGUUUCUCAAUCGAUUUACCACAACUCU [SHAPE_invivo_SARS-CoV-2_Motif_209] | -0.078 | -0.326 | -0.19 | -0.516 |
